Target: VEGF:sFlk-1 complex (human; mouse) (UniProt P15692)
Test: capture ELISA: biotinylated sFlk-1 complexed with VEGF titrated onto wells coated with irrelevant IgM, concentration giving 50% maximal binding; extrapolated value

Chain of VEGF:sFlk-1 complex (human; mouse) (P15692 other isoform, or with tags, fused parts or gaps limits assumed, chain 1 of 2): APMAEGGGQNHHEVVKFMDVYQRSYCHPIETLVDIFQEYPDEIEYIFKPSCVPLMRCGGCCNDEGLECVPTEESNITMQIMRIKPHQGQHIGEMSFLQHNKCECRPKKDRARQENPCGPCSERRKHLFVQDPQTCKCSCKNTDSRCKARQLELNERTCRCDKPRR
Chain of VEGF:sFlk-1 complex (human; mouse) (P35918 20-762 limits assumed, chain 2 of 2, further chain): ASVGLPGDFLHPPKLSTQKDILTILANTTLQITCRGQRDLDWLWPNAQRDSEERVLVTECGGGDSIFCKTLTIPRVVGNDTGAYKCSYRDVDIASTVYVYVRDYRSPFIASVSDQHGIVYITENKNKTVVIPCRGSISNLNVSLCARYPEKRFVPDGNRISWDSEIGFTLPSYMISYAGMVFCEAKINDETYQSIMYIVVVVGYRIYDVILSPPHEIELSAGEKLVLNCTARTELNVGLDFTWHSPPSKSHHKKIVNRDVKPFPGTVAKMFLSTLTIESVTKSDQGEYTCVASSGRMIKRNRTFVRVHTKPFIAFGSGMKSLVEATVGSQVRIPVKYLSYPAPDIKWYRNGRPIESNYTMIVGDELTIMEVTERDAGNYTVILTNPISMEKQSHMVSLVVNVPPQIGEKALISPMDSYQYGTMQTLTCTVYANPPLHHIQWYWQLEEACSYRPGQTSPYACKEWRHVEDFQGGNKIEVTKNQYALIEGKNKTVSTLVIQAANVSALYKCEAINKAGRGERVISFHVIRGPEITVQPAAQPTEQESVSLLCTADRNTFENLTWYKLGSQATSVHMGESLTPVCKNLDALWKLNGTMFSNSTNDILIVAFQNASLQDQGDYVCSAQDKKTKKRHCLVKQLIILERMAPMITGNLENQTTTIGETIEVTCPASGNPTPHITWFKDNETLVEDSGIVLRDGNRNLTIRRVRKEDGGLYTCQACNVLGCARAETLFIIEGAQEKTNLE

Q: For “irrelevant IgM (negative control of Table 2) (antibody)”, which EC50 is on record?
A: 600 nM

From patent US20030175276A1
